Results published in patent US20260049138A1 (Chugai, published 2026).

Molecular target: T1, CD3ε homodimer protein (human, UniProt P07766 23-126, limits assumed)
T1 construct: also called CD3 (CD3ε)
Test: SPR Biacore T200, CD3ε homodimer on chip;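 note: Light-chain single-residue variant antibodies injected over amine-coupled CD3ε homodimer on a CM4 chip at 25 °C, bound amount divided by that of the GLS3000-containing antibody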

T1 sequence (P07766 23-126 limits assumed): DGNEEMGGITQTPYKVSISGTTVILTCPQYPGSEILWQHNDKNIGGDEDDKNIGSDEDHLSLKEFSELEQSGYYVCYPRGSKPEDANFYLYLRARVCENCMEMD

Binder	ratio of amount bound vs unaltered GLS3000
GLS3000 G89P one-arm antibody (antibody, human IgG1, kappa, L234A L235A, N297A, name in Kabat numbering) heavy: QVQLVESGGGVVQPGRSLRLSCAASGFTFSNAWMHWVRQAPGKGLEWVAQIKAKSNNYATYYAESVKGRFTISRDDSKNSLYLQMNSLKTEDTAVYYCRYVHYGAYYGVDAWGQGTTVTVSSASTKGPSVFPLAPSSKSTSGGTAALGCLVKDYFPEPVTVSWNSGALTSGVHTFPAVLQSSGLYSLSSVVTVPSSSLGTQTYICNVNHKPSNTKVDKKVEPKSCDKTHTCPPCPAPEAAGGPSVFLFPPKPKDTLMISRTPEVTCVVVDVSHEDPEVKFNWYVDGVEVHNAKTKPREEQYASTYRVVSVLTVLHQDWLNGKEYKCKVSNKALPAPIEKTISKAKGQPREPQVYTLPPSRCELTKNQVSLSCAVKGFYPSDIAVEWESNGQPENNYKTTPPVLDSDGSFFLVSKLTVDKSRWQQGNVFSCSVMHEALHNHYTQKSLSLSPDYKDDDDK EPKSSDKTHTCPPCPAPELLGGPSVFLFPPKPKDTLMISRTPEVTCVVVDVSHEDPEVKFNWYVDGVEVHNAKTKPREEQYNSTYRVVSVLTVLHQDWLNGKEYKCKVSNKALPAPIEKTISKAKGQPREPQVCTLPPSRDELTKNQVSLWCLVKGFYPSDIAVEWESNGQPENNYKTTPPVLDSDGSFFLYSKLTVDKSRWQQGNVFSCSVMHEALHNRYTQKSLSLSP light: DIVMTQSPLSLPVTPGEPASISCRSSQSLVHSNRNTYLHWYQQKPGQAPRLLIYKVSNRFSGVPDRFSGSGSGTDFTLKISRVEAEDVGVYYCPQGTQVPYTFGQGTKLEIKRTVAAPSVFIFPPSDEQLKSGTASVVCLLNNFYPREAKVQWKVDNALQSGNSQESVTEQDSKDSTYSLSSTLTLSKADYEKHKVYACEVTHQGLSSPVTKSFNRGEC	0.35
GLS3000 G89V one-arm antibody (antibody, human IgG1, kappa, L234A L235A, N297A, name in Kabat numbering) heavy: QVQLVESGGGVVQPGRSLRLSCAASGFTFSNAWMHWVRQAPGKGLEWVAQIKAKSNNYATYYAESVKGRFTISRDDSKNSLYLQMNSLKTEDTAVYYCRYVHYGAYYGVDAWGQGTTVTVSSASTKGPSVFPLAPSSKSTSGGTAALGCLVKDYFPEPVTVSWNSGALTSGVHTFPAVLQSSGLYSLSSVVTVPSSSLGTQTYICNVNHKPSNTKVDKKVEPKSCDKTHTCPPCPAPEAAGGPSVFLFPPKPKDTLMISRTPEVTCVVVDVSHEDPEVKFNWYVDGVEVHNAKTKPREEQYASTYRVVSVLTVLHQDWLNGKEYKCKVSNKALPAPIEKTISKAKGQPREPQVYTLPPSRCELTKNQVSLSCAVKGFYPSDIAVEWESNGQPENNYKTTPPVLDSDGSFFLVSKLTVDKSRWQQGNVFSCSVMHEALHNHYTQKSLSLSPDYKDDDDK EPKSSDKTHTCPPCPAPELLGGPSVFLFPPKPKDTLMISRTPEVTCVVVDVSHEDPEVKFNWYVDGVEVHNAKTKPREEQYNSTYRVVSVLTVLHQDWLNGKEYKCKVSNKALPAPIEKTISKAKGQPREPQVCTLPPSRDELTKNQVSLWCLVKGFYPSDIAVEWESNGQPENNYKTTPPVLDSDGSFFLYSKLTVDKSRWQQGNVFSCSVMHEALHNRYTQKSLSLSP light: DIVMTQSPLSLPVTPGEPASISCRSSQSLVHSNRNTYLHWYQQKPGQAPRLLIYKVSNRFSGVPDRFSGSGSGTDFTLKISRVEAEDVGVYYCVQGTQVPYTFGQGTKLEIKRTVAAPSVFIFPPSDEQLKSGTASVVCLLNNFYPREAKVQWKVDNALQSGNSQESVTEQDSKDSTYSLSSTLTLSKADYEKHKVYACEVTHQGLSSPVTKSFNRGEC	1.63
GLS3000 G89W one-arm antibody (antibody, human IgG1, kappa, L234A L235A, N297A, name in Kabat numbering) heavy: QVQLVESGGGVVQPGRSLRLSCAASGFTFSNAWMHWVRQAPGKGLEWVAQIKAKSNNYATYYAESVKGRFTISRDDSKNSLYLQMNSLKTEDTAVYYCRYVHYGAYYGVDAWGQGTTVTVSSASTKGPSVFPLAPSSKSTSGGTAALGCLVKDYFPEPVTVSWNSGALTSGVHTFPAVLQSSGLYSLSSVVTVPSSSLGTQTYICNVNHKPSNTKVDKKVEPKSCDKTHTCPPCPAPEAAGGPSVFLFPPKPKDTLMISRTPEVTCVVVDVSHEDPEVKFNWYVDGVEVHNAKTKPREEQYASTYRVVSVLTVLHQDWLNGKEYKCKVSNKALPAPIEKTISKAKGQPREPQVYTLPPSRCELTKNQVSLSCAVKGFYPSDIAVEWESNGQPENNYKTTPPVLDSDGSFFLVSKLTVDKSRWQQGNVFSCSVMHEALHNHYTQKSLSLSPDYKDDDDK EPKSSDKTHTCPPCPAPELLGGPSVFLFPPKPKDTLMISRTPEVTCVVVDVSHEDPEVKFNWYVDGVEVHNAKTKPREEQYNSTYRVVSVLTVLHQDWLNGKEYKCKVSNKALPAPIEKTISKAKGQPREPQVCTLPPSRDELTKNQVSLWCLVKGFYPSDIAVEWESNGQPENNYKTTPPVLDSDGSFFLYSKLTVDKSRWQQGNVFSCSVMHEALHNRYTQKSLSLSP light: DIVMTQSPLSLPVTPGEPASISCRSSQSLVHSNRNTYLHWYQQKPGQAPRLLIYKVSNRFSGVPDRFSGSGSGTDFTLKISRVEAEDVGVYYCWQGTQVPYTFGQGTKLEIKRTVAAPSVFIFPPSDEQLKSGTASVVCLLNNFYPREAKVQWKVDNALQSGNSQESVTEQDSKDSTYSLSSTLTLSKADYEKHKVYACEVTHQGLSSPVTKSFNRGEC	0.5
GLS3000 G89R one-arm antibody (antibody, human IgG1, kappa, L234A L235A, N297A, name in Kabat numbering) heavy: QVQLVESGGGVVQPGRSLRLSCAASGFTFSNAWMHWVRQAPGKGLEWVAQIKAKSNNYATYYAESVKGRFTISRDDSKNSLYLQMNSLKTEDTAVYYCRYVHYGAYYGVDAWGQGTTVTVSSASTKGPSVFPLAPSSKSTSGGTAALGCLVKDYFPEPVTVSWNSGALTSGVHTFPAVLQSSGLYSLSSVVTVPSSSLGTQTYICNVNHKPSNTKVDKKVEPKSCDKTHTCPPCPAPEAAGGPSVFLFPPKPKDTLMISRTPEVTCVVVDVSHEDPEVKFNWYVDGVEVHNAKTKPREEQYASTYRVVSVLTVLHQDWLNGKEYKCKVSNKALPAPIEKTISKAKGQPREPQVYTLPPSRCELTKNQVSLSCAVKGFYPSDIAVEWESNGQPENNYKTTPPVLDSDGSFFLVSKLTVDKSRWQQGNVFSCSVMHEALHNHYTQKSLSLSPDYKDDDDK EPKSSDKTHTCPPCPAPELLGGPSVFLFPPKPKDTLMISRTPEVTCVVVDVSHEDPEVKFNWYVDGVEVHNAKTKPREEQYNSTYRVVSVLTVLHQDWLNGKEYKCKVSNKALPAPIEKTISKAKGQPREPQVCTLPPSRDELTKNQVSLWCLVKGFYPSDIAVEWESNGQPENNYKTTPPVLDSDGSFFLYSKLTVDKSRWQQGNVFSCSVMHEALHNRYTQKSLSLSP light: DIVMTQSPLSLPVTPGEPASISCRSSQSLVHSNRNTYLHWYQQKPGQAPRLLIYKVSNRFSGVPDRFSGSGSGTDFTLKISRVEAEDVGVYYCRQGTQVPYTFGQGTKLEIKRTVAAPSVFIFPPSDEQLKSGTASVVCLLNNFYPREAKVQWKVDNALQSGNSQESVTEQDSKDSTYSLSSTLTLSKADYEKHKVYACEVTHQGLSSPVTKSFNRGEC	0.19
GLS3000 G89Q one-arm antibody (antibody, human IgG1, kappa, L234A L235A, N297A, name in Kabat numbering) heavy: QVQLVESGGGVVQPGRSLRLSCAASGFTFSNAWMHWVRQAPGKGLEWVAQIKAKSNNYATYYAESVKGRFTISRDDSKNSLYLQMNSLKTEDTAVYYCRYVHYGAYYGVDAWGQGTTVTVSSASTKGPSVFPLAPSSKSTSGGTAALGCLVKDYFPEPVTVSWNSGALTSGVHTFPAVLQSSGLYSLSSVVTVPSSSLGTQTYICNVNHKPSNTKVDKKVEPKSCDKTHTCPPCPAPEAAGGPSVFLFPPKPKDTLMISRTPEVTCVVVDVSHEDPEVKFNWYVDGVEVHNAKTKPREEQYASTYRVVSVLTVLHQDWLNGKEYKCKVSNKALPAPIEKTISKAKGQPREPQVYTLPPSRCELTKNQVSLSCAVKGFYPSDIAVEWESNGQPENNYKTTPPVLDSDGSFFLVSKLTVDKSRWQQGNVFSCSVMHEALHNHYTQKSLSLSPDYKDDDDK EPKSSDKTHTCPPCPAPELLGGPSVFLFPPKPKDTLMISRTPEVTCVVVDVSHEDPEVKFNWYVDGVEVHNAKTKPREEQYNSTYRVVSVLTVLHQDWLNGKEYKCKVSNKALPAPIEKTISKAKGQPREPQVCTLPPSRDELTKNQVSLWCLVKGFYPSDIAVEWESNGQPENNYKTTPPVLDSDGSFFLYSKLTVDKSRWQQGNVFSCSVMHEALHNRYTQKSLSLSP light: DIVMTQSPLSLPVTPGEPASISCRSSQSLVHSNRNTYLHWYQQKPGQAPRLLIYKVSNRFSGVPDRFSGSGSGTDFTLKISRVEAEDVGVYYCQQGTQVPYTFGQGTKLEIKRTVAAPSVFIFPPSDEQLKSGTASVVCLLNNFYPREAKVQWKVDNALQSGNSQESVTEQDSKDSTYSLSSTLTLSKADYEKHKVYACEVTHQGLSSPVTKSFNRGEC	0.38
GLS3000 G89T one-arm antibody (antibody, human IgG1, kappa, L234A L235A, N297A, name in Kabat numbering) heavy: QVQLVESGGGVVQPGRSLRLSCAASGFTFSNAWMHWVRQAPGKGLEWVAQIKAKSNNYATYYAESVKGRFTISRDDSKNSLYLQMNSLKTEDTAVYYCRYVHYGAYYGVDAWGQGTTVTVSSASTKGPSVFPLAPSSKSTSGGTAALGCLVKDYFPEPVTVSWNSGALTSGVHTFPAVLQSSGLYSLSSVVTVPSSSLGTQTYICNVNHKPSNTKVDKKVEPKSCDKTHTCPPCPAPEAAGGPSVFLFPPKPKDTLMISRTPEVTCVVVDVSHEDPEVKFNWYVDGVEVHNAKTKPREEQYASTYRVVSVLTVLHQDWLNGKEYKCKVSNKALPAPIEKTISKAKGQPREPQVYTLPPSRCELTKNQVSLSCAVKGFYPSDIAVEWESNGQPENNYKTTPPVLDSDGSFFLVSKLTVDKSRWQQGNVFSCSVMHEALHNHYTQKSLSLSPDYKDDDDK EPKSSDKTHTCPPCPAPELLGGPSVFLFPPKPKDTLMISRTPEVTCVVVDVSHEDPEVKFNWYVDGVEVHNAKTKPREEQYNSTYRVVSVLTVLHQDWLNGKEYKCKVSNKALPAPIEKTISKAKGQPREPQVCTLPPSRDELTKNQVSLWCLVKGFYPSDIAVEWESNGQPENNYKTTPPVLDSDGSFFLYSKLTVDKSRWQQGNVFSCSVMHEALHNRYTQKSLSLSP light: DIVMTQSPLSLPVTPGEPASISCRSSQSLVHSNRNTYLHWYQQKPGQAPRLLIYKVSNRFSGVPDRFSGSGSGTDFTLKISRVEAEDVGVYYCTQGTQVPYTFGQGTKLEIKRTVAAPSVFIFPPSDEQLKSGTASVVCLLNNFYPREAKVQWKVDNALQSGNSQESVTEQDSKDSTYSLSSTLTLSKADYEKHKVYACEVTHQGLSSPVTKSFNRGEC	1.03
